Article PMC3500689

Experiments:
[1] = biological target: GluA2 flip splice variant (R/G edited) (UniProt P19491)
[2] = biological target: GluA2 flop splice variant (UniProt P19491)
[3] = biological target: GluA2 flip splice variant (R/G edited) (UniProt P19491); remark: listed apart in the source
[4] = biological target: GluA2, native in CA1 pyramidal cells (rat (endogenous in hippocampal slice cultures)) (UniProt P19491)

rectification index (g+10 / g-40) of I/V relationships with 100 uM intracellular spermine, HEK293T cells cotransfected at an A1/A2 ratio of 4:1; marker for heteromerization competence [1]	rectification index of patches from HEK293 cells expressing A1i/A2o and γ-8 (threshold by which patches were chosen) [2]	rectification index of patches from HEK293 cells expressing A1o/A2i and γ-8 (threshold by which patches were chosen) [3]	Substance	percentage block of the peak glutamate current by 100 μM philanthotoxin 74 (selective for A1/A2 heteromers), CA1 patches, control slices, mean [4] [%]	percentage block of the peak glutamate current by 100 μM philanthotoxin 74 (selective for A1/A2 heteromers), CA1 patches, slices after 48 hr TTX, mean [4] [%]
0.1	> 0.7	–	GluA1 flip splice variant (from UniProt P19490-2 19-907) (receptor)	–	–
0.7	–	> 0.7	GluA1 flop splice variant (from UniProt P19490 19-907) (receptor)	–	–
–	–	–	GluA1, native in CA1 pyramidal cells (from UniProt P19490 19-907) (receptor)	95	93.9
